This is an account of results in PMC5379955.

As usually defined, the stoichiometry N is a count of units in the complex or per binding partner.

The assay addresses ROD (human) (UniProt P50748). The experiment in a line: AUC.

As to ROD, P50748 1-2209, the stoichiometry N was found to be 2.
